Assay results from US20260098102A1 (NATIONAL UNIVERSITY CORPORATION KOBE UNIVERSITY, published 2026).

Columns and labels:
SIRPA_V2_IgV = molecular target: T1, SIRPA_V2_IgV (human); experiment: SPR Biacore T200, antibody captured on anti-human IgG (Fc), SIRPA_V2_IgV as analyte (0.25 to 16 nM), 1:1 model
T1 construct: Secreted recombinant protein; The crystal model held residues 33 to 143 of human SIRPA Variant 2
Protocol: (§1) The dissociation constants were measured by a capture method comprising capturing each antibody as a ligand to an Anti-Human IgG (Fc) antibody immobilized using Human Antibody Capture Kit (GE Healthcare Bioscience Corp.) and measuring an antigen as an analyte, using Biacore T200 (GE Healthcare Bioscience Corp.). HBS-EP+ (GE Healthcare Bioscience Corp.) was used as a running buffer, and CM5 (GE Healthcare Bioscience Corp.) was used as a sensor chip. Onto the chip, 2 μg/mL of various antibodies were added at 10 μL/min for 30 seconds, then a serially diluted solution (0.25 to 16 nM) of the human SIRPA protein as an antigen was added at a flow rate of 30 μL/min for 120 seconds, and subsequently the dissociation phase for 600 seconds was monitored. As a regenerant, 3 M magnesium chloride (GE Healthcare Bioscience Corp.) was added at a flow rate of 20 μL/min for 30 seconds. For data analysis, a binding rate constant (ka), a dissociation rate constant (kd), and a dissociation constant (KD; KD=kd/ka) were calculated using a 1:1 binding model.

human SIRPA_V2 protein = molecular target: T2, human SIRPA_V2 protein (human, UniProt P78324 31-504); experiment: blocking cell-based ELISA: peroxidase-labeled CD47-Fc (1 µg/mL) on 293α cells expressing SIRPA_V2
T2 construct: Expressed on 293α cells from pcDNA3.2 V5-DEST or pFLAG V5-DEST (FLAG-tagged) vectors; also called human SIRPA Variant 2; ECD variant (full-length, amino acids 1 to 504)
T2 sequence (P78324 other isoform, or with tags, fused parts or gaps limits assumed): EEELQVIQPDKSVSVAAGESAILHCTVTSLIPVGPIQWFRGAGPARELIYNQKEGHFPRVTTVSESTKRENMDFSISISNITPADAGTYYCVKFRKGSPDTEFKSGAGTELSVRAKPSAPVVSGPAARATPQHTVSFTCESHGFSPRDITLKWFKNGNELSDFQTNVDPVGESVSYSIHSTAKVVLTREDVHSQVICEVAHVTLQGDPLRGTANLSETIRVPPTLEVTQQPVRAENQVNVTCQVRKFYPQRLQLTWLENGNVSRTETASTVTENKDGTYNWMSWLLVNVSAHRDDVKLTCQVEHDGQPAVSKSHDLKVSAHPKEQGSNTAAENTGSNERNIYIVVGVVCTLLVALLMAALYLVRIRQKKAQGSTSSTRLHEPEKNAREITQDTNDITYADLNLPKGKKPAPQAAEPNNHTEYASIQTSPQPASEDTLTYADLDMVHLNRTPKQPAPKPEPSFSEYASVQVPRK
Protocol: (§2) After the culture supernatant of the human SIRPA_V1 or V2 expression vector-introduced 293 cells prepared in Example 9)-1 was removed, 50 μL per well of various anti-SIRPA antibodies or various control Human IgG diluted with 5% FBS-containing PBS to a final concentration of 0 to 10,000 ng/ml was added to each of pcDNA3.2 V5-DEST-SIRPA_V1 or V2-introduced 293α cells, immediately followed by addition of 50 µL per well of peroxidase-labeled CD47-Fc prepared with 5% FBS-containing PBS at 1 μg/mL, and the mixture was allowed to stand at 4° C. for one hour. Thereafter, the SIRPA-CD47 binding inhibitory activity was evaluated in the same manner as in 1)-6-3.

human SIRPB = molecular target: T3, human SIRPB (human, UniProt O00241 30-398); experiment: flow cytometry on CHO-K1 cells expressing FLAG-tagged human SIRPB; PE anti-human IgG; MFI standardized to secondary antibody alone
T3 construct: whole, on cells; FLAG-tagged (pFLAG V5-DEST), on CHO-K1 cells; also called SIRPβ1; signal regulatory protein β1
T3 sequence (O00241 30-398): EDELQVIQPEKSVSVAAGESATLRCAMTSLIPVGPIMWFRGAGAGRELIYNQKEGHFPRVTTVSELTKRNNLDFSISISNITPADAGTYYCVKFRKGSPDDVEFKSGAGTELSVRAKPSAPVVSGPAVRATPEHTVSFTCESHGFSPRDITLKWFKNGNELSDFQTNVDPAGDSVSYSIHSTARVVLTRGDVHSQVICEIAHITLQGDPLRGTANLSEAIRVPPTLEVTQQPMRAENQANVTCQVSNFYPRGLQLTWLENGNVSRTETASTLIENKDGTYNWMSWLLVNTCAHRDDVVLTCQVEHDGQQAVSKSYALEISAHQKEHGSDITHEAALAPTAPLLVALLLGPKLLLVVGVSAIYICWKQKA
Protocol: SIRPβ1 (signal regulatory protein β1: the amino acid sequence thereof is published as RefSeq accession number NP_006056) and SIRPγ (signal regulatory protein γ: the amino acid sequence thereof is published as RefSeq accession number NP_061026) are molecules belonging to the SIRPA family. In the present invention, “SIRPα” may be referred to as “SIRPA,” “SIRPβ1” may be referred to as […] and “SIRPγ” may be referred to as “SIRPG.” CHO-K1 cells were prepared in a 10% FBS-containing Ham's F-12K medium at 3.3×10⁵ cells/mL and cultured overnight at 37° C. under a 5% CO₂ condition. pFLAG V5-DEST-human SIRPβ, pFLAG V5-DEST-human SIRPG, or pFLAG V5-DEST was introduced into the cells using Lipofectamine LTX (Invitrogen), and cells were cultured in a 10% FBS-containing Ham's F-12K medium at 37° C. under a 5% CO₂ condition for 24 hours. The obtained introduced cells were collected and seeded on a 96-well plate. After the culture supernatant was removed, 100 μL per well of various anti-human SIRPA antibodies or various control human IgG was added to each of various gene introduced cells at a final concentration of 0 to 10,000 ng/mL, and the mixture was allowed to stand at 4° C. for 25 minutes. After the mixture was centrifuged, the supernatant was removed, and cells were washed twice with 5% FBS-containing PBS. After the mixture was centrifuged, the supernatant was removed, 50 μL per well of a 1/400 diluted solution of PE Mouse anti-Human IgG antibody (BioLegend) was added, and the mixture was allowed to stand at 4° C. for 25 minutes. After the mixture was centrifuged, the supernatant was removed, and cells were washed twice with 5% FBS-containing PBS.
(§3) After the mixture was centrifuged, and the supernatant was removed, cells were suspended in 100 μL per well of 1× BD Stabilizing Fixative (Becton Dickinson), and the cell count was measured by flow cytometry (FACS Canto II: Becton Dickinson). For data analysis, FlowJo (TreeStar) was used. Cells were characterized by detecting forward scattered (FSC) light and side-scattered (SSC) light, and then the mean fluorescence intensity of PE was calculated. Binding of various antibodies to the family molecules was calculated by standardizing the fluorescence intensity using the mean fluorescence intensity of a sample in which the secondary antibody alone was allowed to react.

SIRPA_V1_IgV = molecular target: T4, SIRPA_V1_IgV (human, UniProt P78324 31-149); experiment: SPR Biacore T200, antibody captured on anti-human IgG (Fc), SIRPA_V1_IgV as analyte (0.25 to 16 nM), 1:1 model
T4 construct: Secreted recombinant protein from FreeStyle 293F cells
T4 sequence (P78324 other isoform, or with tags, fused parts or gaps limits assumed): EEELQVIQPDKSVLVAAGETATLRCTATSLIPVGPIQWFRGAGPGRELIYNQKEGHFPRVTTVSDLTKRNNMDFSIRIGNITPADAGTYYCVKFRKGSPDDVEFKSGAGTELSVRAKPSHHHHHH
Protocol: as §1

human SIRPG = molecular target: T5, human SIRPG (human, UniProt Q9P1W8 29-387); experiment: flow cytometry on CHO-K1 cells expressing FLAG-tagged human SIRPG; PE anti-human IgG; MFI standardized to secondary antibody alone
T5 construct: whole, on cells; FLAG-tagged (pFLAG V5-DEST), on CHO-K1 cells; also called SIRPγ; signal regulatory protein γ
T5 sequence (Q9P1W8 29-387): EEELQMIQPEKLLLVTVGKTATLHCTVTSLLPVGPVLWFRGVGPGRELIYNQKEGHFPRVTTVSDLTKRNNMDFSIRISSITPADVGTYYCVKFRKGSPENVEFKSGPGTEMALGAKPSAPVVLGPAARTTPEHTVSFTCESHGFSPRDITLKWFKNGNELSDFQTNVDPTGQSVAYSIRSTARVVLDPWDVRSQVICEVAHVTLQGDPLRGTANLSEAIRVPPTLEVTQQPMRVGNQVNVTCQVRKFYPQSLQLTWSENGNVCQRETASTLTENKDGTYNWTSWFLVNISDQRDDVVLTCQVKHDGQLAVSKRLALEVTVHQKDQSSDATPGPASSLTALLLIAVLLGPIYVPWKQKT
Protocol: SIRPβ1 (signal regulatory protein β1: the amino acid sequence thereof is published as RefSeq accession number NP_006056) and SIRPγ (signal regulatory protein γ: the amino acid sequence thereof is published as RefSeq accession number NP_061026) are molecules belonging to the SIRPA family. In the present invention, “SIRPα” may be referred to as “SIRPA,” “SIRPβ1” may be referred to as […] and “SIRPγ” may be referred to as “SIRPG.” CHO-K1 cells were prepared in a 10% FBS-containing Ham's F-12K medium at 3.3×10⁵ cells/mL and cultured overnight at 37° C. under a 5% CO₂ condition. pFLAG V5-DEST-human SIRPβ, pFLAG V5-DEST-human SIRPG, or pFLAG V5-DEST was introduced into the cells using Lipofectamine LTX (Invitrogen), and cells were cultured in a 10% FBS-containing Ham's F-12K medium at 37° C. under a 5% CO₂ condition for 24 hours. The obtained introduced cells were collected and seeded on a 96-well plate. After the culture supernatant was removed, 100 μL per well of various anti-human SIRPA antibodies or various control human IgG was added to each of various gene introduced cells at a final concentration of 0 to 10,000 ng/mL, and the mixture was allowed to stand at 4° C. for 25 minutes. After the mixture was centrifuged, the supernatant was removed, and cells were washed twice with 5% FBS-containing PBS. […]
as §3, with “For data analysis, FlowJo (TreeStar) was used.” left out

human SIRPA_V1 protein = molecular target: T6, human SIRPA_V1 protein (human, UniProt P78324 31-504); experiment: blocking cell-based ELISA: peroxidase-labeled CD47-Fc (1 µg/mL) on 293α cells expressing SIRPA_V1
T6 construct: Expressed on 293α cells from pcDNA3.2 V5-DEST or pFLAG V5-DEST (FLAG-tagged) vectors; also called human SIRPA Variant 1; hSIRPA V1
T6 sequence (P78324 31-504 limits assumed): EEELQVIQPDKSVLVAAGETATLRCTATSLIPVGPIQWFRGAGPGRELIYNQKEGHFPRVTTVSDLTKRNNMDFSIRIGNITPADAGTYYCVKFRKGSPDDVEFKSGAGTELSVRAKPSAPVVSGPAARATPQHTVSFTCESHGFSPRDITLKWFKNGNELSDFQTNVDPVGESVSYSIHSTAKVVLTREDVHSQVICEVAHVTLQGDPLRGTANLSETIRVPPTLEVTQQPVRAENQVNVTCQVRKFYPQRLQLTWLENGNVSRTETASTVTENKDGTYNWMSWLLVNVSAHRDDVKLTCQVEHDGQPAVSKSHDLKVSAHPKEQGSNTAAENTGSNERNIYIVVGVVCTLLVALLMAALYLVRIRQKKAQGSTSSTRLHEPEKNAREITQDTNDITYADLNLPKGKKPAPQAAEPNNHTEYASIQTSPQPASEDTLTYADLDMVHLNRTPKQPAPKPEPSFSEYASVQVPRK
Protocol: as §2

T1 sequence (chain, as listed by the source limits assumed): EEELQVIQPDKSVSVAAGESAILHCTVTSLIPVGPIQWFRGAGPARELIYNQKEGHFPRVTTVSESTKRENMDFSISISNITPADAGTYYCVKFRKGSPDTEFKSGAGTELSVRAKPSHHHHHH

Kd (SIRPA_V2_IgV): 4.46 nM
IC50 (human SIRPA_V2 protein): 2.19 µg/mL
binding result (human SIRPB): binds
Kd (SIRPA_V1_IgV): 2.55 nM
EC50 (read off the curve) (human SIRPG): ~0.03 µg/mL
IC50 (human SIRPA_V1 protein): 2.24 µg/mL
B1: KWAR23 (antibody, human IgG4 S228P, kappa, V domains shown)
VH: EVQLQQSGAELVKPGASVKLSCTASGFNIKDYYIHWVQQRTEQGLEWIGRIDPEDGETKYAPKFQDKATITADTSSNTAYLHLSSLTSEDTAVYYCARWGAYWGQGTLVTVSA
VL: QIVLTQSPAIMSASPGEKVTLTCSASSSVSSSYLYWYQQKPGSSPKLWIYSTSNLASGVPARFSGSGSGTSYSLTISSMEAEDAASYFCHQWSSYPRTFGAGTKLELKR
notes: IgG4Pro heavy chain; also called KWAR23_hG4Pro / KWAR23_hK
